Laboratory results published in US20030143656A1.

Legend:
PIFtide (human) = assay: method not stated (reference mark lost)
[1] = biological target: endogenous PDK1 (293 cells) (human) (UniProt O15530); assay: cell-based or functional assay
Sequence of endogenous PDK1 (293 cells) (human) (O15530 whole entry): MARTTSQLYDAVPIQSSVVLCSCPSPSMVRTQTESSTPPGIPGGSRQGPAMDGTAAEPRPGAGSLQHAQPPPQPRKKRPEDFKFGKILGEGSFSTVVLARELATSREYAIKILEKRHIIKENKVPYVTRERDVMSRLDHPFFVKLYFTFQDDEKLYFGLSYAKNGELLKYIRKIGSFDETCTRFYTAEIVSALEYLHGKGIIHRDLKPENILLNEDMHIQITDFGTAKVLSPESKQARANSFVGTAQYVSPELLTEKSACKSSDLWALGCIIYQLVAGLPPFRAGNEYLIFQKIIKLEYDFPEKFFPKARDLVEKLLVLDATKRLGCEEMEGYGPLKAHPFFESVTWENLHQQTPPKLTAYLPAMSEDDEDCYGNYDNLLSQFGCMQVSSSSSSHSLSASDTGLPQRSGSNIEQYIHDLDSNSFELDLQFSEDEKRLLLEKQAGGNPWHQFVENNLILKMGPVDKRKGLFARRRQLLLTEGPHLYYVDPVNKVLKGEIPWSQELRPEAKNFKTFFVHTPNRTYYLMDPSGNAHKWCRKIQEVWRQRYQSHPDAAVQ

Sequence of PIFtide (human) (peptide, as listed by the source): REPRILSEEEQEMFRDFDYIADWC

Row | Substance | fold decrease in affinity for PIFtide (PIFtide (human)) [fold] | activation of p70 S6K on cotransfection with GST-F977A-PIF [1] [%]
1 | GST-PDK1 I119A (from UniProt O15530 1-556) (enzyme) | 10 | 
2 | GST-F977A-PIF (from UniProt Q16513 908-984) |  | 50
